Assays:
[1] = target: T1, bacteriophage T7 ejection protein gp16 (internal virion protein), N-terminal 10x His-tagged, full-length (bacteriophage T7, UniProt P03726 1-1318)
T1 sequence (looked up): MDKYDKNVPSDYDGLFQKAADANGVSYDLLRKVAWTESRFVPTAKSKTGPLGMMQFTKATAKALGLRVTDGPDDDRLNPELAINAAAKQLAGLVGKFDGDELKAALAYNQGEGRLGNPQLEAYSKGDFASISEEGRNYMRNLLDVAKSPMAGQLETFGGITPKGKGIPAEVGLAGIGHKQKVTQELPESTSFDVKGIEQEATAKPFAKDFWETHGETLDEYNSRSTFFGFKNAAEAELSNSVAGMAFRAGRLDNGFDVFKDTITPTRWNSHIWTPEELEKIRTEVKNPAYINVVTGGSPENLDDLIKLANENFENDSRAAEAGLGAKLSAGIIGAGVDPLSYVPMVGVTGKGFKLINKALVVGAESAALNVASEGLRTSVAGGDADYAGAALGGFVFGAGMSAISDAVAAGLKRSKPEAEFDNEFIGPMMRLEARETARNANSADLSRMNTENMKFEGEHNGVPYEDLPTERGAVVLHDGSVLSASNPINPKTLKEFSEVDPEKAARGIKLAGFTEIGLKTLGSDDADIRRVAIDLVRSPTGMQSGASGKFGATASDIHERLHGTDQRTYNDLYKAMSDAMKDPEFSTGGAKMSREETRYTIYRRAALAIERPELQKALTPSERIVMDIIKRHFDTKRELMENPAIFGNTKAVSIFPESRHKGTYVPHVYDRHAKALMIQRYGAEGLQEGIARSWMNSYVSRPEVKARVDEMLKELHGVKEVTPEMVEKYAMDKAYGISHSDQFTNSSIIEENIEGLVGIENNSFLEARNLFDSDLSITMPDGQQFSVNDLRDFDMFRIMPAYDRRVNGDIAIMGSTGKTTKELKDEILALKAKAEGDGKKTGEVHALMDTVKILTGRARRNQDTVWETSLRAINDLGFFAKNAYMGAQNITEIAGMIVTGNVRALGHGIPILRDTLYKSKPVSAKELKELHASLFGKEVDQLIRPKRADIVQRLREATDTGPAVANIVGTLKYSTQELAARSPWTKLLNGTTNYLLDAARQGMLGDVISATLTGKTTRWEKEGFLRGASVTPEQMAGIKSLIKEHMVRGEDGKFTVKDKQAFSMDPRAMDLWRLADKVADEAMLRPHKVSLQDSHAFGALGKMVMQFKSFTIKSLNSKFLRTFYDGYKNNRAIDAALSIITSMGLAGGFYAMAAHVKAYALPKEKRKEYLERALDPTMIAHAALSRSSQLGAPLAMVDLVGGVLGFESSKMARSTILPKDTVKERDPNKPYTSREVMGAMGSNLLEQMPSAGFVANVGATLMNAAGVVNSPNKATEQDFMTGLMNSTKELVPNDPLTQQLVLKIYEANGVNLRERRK

[2] = target: the molecule itself

B1: bacteriophage T7 ejection protein gp15 (internal virion protein), N-terminal 10x His-tagged, full-length (natural protein, UniProt P03725 1-747, looked up)
chain: MSKIESALQAAQPGLSRLRGGAGGMGYRAATTQAEQPRSSLLDTIGRFAKAGADMYTAKEQRARDLADERSNEIIRKLTPEQRREALNNGTLLYQDDPYAMEALRVKTGRNAAYLVDDDVMQKIKEGVFRTREEMEEYRHSRLQEGAKVYAEQFGIDPEDVDYQRGFNGDITERNISLYGAHDNFLSQQAQKGAIMNSRVELNGVLQDPDMLRRPDSADFFEKYIDNGLVTGAIPSDAQATQLISQAFSDASSRAGGADFLMRVGDKKVTLNGATTTYRELIGEEQWNALMVTAQRSQFETDAKLNEQYRLKINSALNQEDPRTAWEMLQGIKAELDKVQPDEQMTPQREWLISAQEQVQNQMNAWTKAQAKALDDSMKSMNKLDVIDKQFQKRINGEWVSTDFKDMPVNENTGEFKHSDMVNYANKKLAEIDSMDIPDGAKDAMKLKYLQADSKDGAFRTAIGTMVTDAGQEWSAAVINGKLPERTPAMDALRRIRNADPQLIAALYPDQAELFLTMDMMDKQGIDPQVILDADRLTVKRSKEQRFEDDKAFESALNASKAPEIARMPASLRESARKIYDSVKYRSGNESMAMEQMTKFLKESTYTFTGDDVDGDTVGVIPKNMMQVNSDPKSWEQGRDILEEARKGIIASNPWITNKQLTMYSQGDSIYLMDTTGQVRVRYDKELLSKVWSENQKKLEEKAREKALADVNKRAPIVAATKAREAAAKRVREKRKQTPKFIYGRKE
[1]
  stoichiometry N: 1 gp15:gp16 (6:6)
[2]
  stoichiometry N: 6

Source: paper PMC8605104 (STAR Protocols, 2021)
